From paper PMC8366996, “A novel cascade allows Metarhizium robertsii to distinguish cuticle and hemocoel microenvironments during infection of insects”
Residue numbers refer to the chain shown, from its start.

B1: COH2-BM wild-type probe (dsDNA)
DNA 1: TTCATCTGCCGAAATGTGGACGCTGACTCGGTATGCATTGCACCATCTC
DNA 2: GAGATGGTGCAATGCATACCGAGTCAGCGTCCACATTTCGGCAGATGAA
B2: 7A (dsDNA)
DNA 1: B1 DNA 1 with G30A
DNA 2: B1 DNA 2 with C20T

Experiments:
COH2-DBD [1] = target: T1, COH2-DBD (Metarhizium robertsii, UniProt E9F6D9 1-100); test: EMSA; LightShift Chemiluminescent EMSA Kit; competitor up to 300-fold excess; buffer, salt, pH and temperature not stated; conditions: protein: recombinant; tags: His (pET28a); chain copies: 2; label: biotin on one strand (Bio-probe); unlabeled as Cold-probe
COH2-DBD [2] = target: T1, COH2-DBD; test: competition; unlabeled mutant, 300-fold excess; almost completely abolished shift; LightShift Chemiluminescent EMSA Kit; competitor up to 300-fold excess; buffer, salt, pH and temperature not stated; conditions: protein: recombinant; tags: His (pET28a); chain copies: 2

Binder	binding result (COH2-DBD [1])	binding result (COH2-DBD [2])
B1	binds	
B2		binds
